According to paper PMC7547085, “Specific and direct modulation of the interaction between adhesion GPCR GPR56/ADGRG1 and tissue transglutaminase 2 using synthetic ligands” (Scientific Reports, 2020):
Positions count from the first letter of the chain named.

B1: mouse GPR56/ADGRG1 extracellular region (ECR), wild type (domain or fragment)
chain: PREDFRFCGQRNQTQQSTLHYDQSSEPHIFVWNTEETLTIRAPFLAAPDIPRFFPEPRGLYHFCLYWSRHTGRLHLRYGKHDYLLSSQASRLLCFQKQEQSLKQGAPLIATSVSSWQIPQNTSLPGAPSFIFSFHNAPHKVSHNASVDMCDLKKELQQLSRYLQHPQKAAKRPTAAFISQQLQSLESKLTSVSFLGDTLSFEEDRVNATVWKLPPTAGLEDLHIHSQKEEEQSEVQAYSLLLPRAVFQQTRGRRRDDAKRLLVVDFSSQALFQDKNSSQVLGEKVLGIVVQNTKVTNLSDPVVLTFQHQPQPKNVTLQCVFWVEDPASSSTGSWSSAGCETVSRDTQTSCLCNHLTYFAVLMVS
modifications: biotin on the AVI-tag
B2: mouse GPR56 ECR H89A (domain or fragment)
chain: B1 chain with H62A
modifications: biotin on the AVI-tag
B3: mouse GPR56 ECR S150A (domain or fragment)
chain: GSPREDFRFCGQRNQTQQSTLHYDQSSEPHIFVWNTEETLTIRAPFLAAPDIPRFFPEPRGLYHFCLYWSRHTGRLHLRYGKHDYLLSSQASRLLCFQKQEQSLKQGAPLIATSVSSWQIPQNTALPGAPSFIFSFHNAPHKVSHNASVDMCDLKKELQQLSRYLQHPQKAAKRPTAAFISQQLQSLESKLTSVSFLGDTLSFEEDRVNATVWKLPPTAGLEDLHIHSQKEEEQSEVQAYSLLLPRAVFQQTRGRRRDDAKRLLVVDFSSQALFQDKNSSQVLGEKVLGIVVQNTKVTNLSDPVVLTFQHQPQPKNVTLQCVFWVEDPASSSTGSWSSAGCETVSRDTQTSCLCNHLTYFAVLMVSSTEVEATHKHY
modifications: biotin on the AVI-tag
B4: human GPR56/ADGRG1 extracellular region (ECR), wild type (domain or fragment)
chain: RGHREDFRFCSQRNQTHRSSLHYKPTPDLRISIENSEEALTVHAPFPAAHPASRSFPDPRGLYHFCLYWNRHAGRLHLLYGKRDFLLSDKASSLLCFQHQEESLAQGPPLLATSVTSWWSPQNISLPSAASFTFSFHSPPHTAAHNASVDMCELKRDLQLLSQFLKHPQKASRRPSAAPASQQLQSLESKLTSVRFMGDMVSFEEDRINATVWKLQPTAGLQDLHIHSRQEEEQSEIMEYSVLLPRTLFQRTKGRSGEAEKRLLLVDFSSQALFQDKNSSQVLGEKVLGIVVQNTKVANLTEPVVLTFQHQLQPKNVTLQCVFWVEDPTLSSPGHWSSAGCETVRRETQTSCFCNHLTYFAVLMVSSVEVDAVHKH
modifications: biotin on the AVI-tag

Experiments:
[1] = biological target: mouse tissue transglutaminase 2 C-terminal D3D4 domains (mTG2 D3D4) (mouse) (UniProt P21981); assay: bead-binding assay read by flow cytometry; titration of monomeric biotinylated GPR56 fragments on TG2 D3D4-coated M280 beads; detected with neutravidin-650; one-to-one binding fit; apparent KD
[2] = biological target: T1, mouse tissue transglutaminase 2 C-terminal D3D4 domains (mTG2 D3D4) (mouse, UniProt P21981 471-686, biotin on the AVI-tag); assay: as above; details: both partners purified
T1 construct: tissue transglutaminase 2 (TG2), mouse, domains D3 and D4, residues T471-A686; Used on M280 beads, or tetramerized with neutravidin-650 to stain cells; not shown: AVI-tag, N-terminal, kept
T1 sequence (looked up): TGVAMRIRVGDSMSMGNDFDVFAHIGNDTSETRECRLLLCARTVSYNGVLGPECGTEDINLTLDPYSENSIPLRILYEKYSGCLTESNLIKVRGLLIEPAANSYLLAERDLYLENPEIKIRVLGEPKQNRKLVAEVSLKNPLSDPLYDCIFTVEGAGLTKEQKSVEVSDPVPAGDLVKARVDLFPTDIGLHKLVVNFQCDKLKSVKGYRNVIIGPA

[3] = biological target: T2, mouse tissue transglutaminase 2 C-terminal D3D4 domains (mTG2 D3D4) (mouse, UniProt P21981 471-686, biotin on the AVI-tag); assay: FACS
T2 chain: T1 sequence (looked up)

Molecule | Kd [2] [nM] | also measured
human GPR56 ECR H89A (domain or fragment) |  | Kd [1]: 790 nM
B1 | 440 ± 20 | 
B2 | 880 ± 80 | 
B3 |  | fold increase in affinity against wild type [1]: 40 fold; Kd [3]: 11 nM
B4 | 330 ± 15 | 
